Target: T1, His-GBA3-HA (recombinant epitope-tagged cytosolic β-glycosidase GBA3) (human, UniProt Q9H227 1-469)
T1 construct: GBA3, cytosolic β-glycosidase, human; Construct pDEST17-His-GBA3-HA; also called β-galactosidase/β-glucosidase; source: E. coli BL21(AI), purified (Ni-Sepharose 6 Fast Flow); not shown: His6, N-terminal, kept; HA, C-terminal, kept
T1 sequence (looked up): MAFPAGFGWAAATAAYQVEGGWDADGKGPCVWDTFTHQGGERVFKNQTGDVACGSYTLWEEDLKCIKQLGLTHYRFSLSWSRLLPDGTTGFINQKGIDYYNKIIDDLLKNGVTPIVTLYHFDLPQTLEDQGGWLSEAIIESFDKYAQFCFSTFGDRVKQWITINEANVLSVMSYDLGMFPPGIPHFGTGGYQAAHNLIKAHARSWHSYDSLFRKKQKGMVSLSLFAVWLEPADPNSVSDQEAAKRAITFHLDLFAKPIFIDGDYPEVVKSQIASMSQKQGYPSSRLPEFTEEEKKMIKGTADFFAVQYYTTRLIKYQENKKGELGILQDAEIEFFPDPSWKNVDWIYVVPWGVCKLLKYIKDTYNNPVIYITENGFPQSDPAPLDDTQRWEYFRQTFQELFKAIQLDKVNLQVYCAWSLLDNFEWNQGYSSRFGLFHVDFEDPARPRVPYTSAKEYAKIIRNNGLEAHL
Assay: pull-down; purified recombinant proteins mixed overnight at 4 °C (1.5 mg/mL each), precipitated with 20 μL Ni-Sepharose 6 Fast Flow for 1 h at 4 °C (His-tagged protein held), washed three times with PBS, western blotting
Conditions: both partners purified

B1: GST-NEU2 (recombinant cytosolic sialidase NEU2) (enzyme, human, UniProt Q9Y3R4 1-380, looked up)
chain: MASLPVLQKESVFQSGAHAYRIPALLYLPGQQSLLAFAEQRASKKDEHAELIVLRRGDYDAPTHQVQWQAQEVVAQARLDGHRSMNPCPLYDAQTGTLFLFFIAIPGQVTEQQQLQTRANVTRLCQVTSTDHGRTWSSPRDLTDAAIGPAYREWSTFAVGPGHCLQLHDRARSLVVPAYAYRKLHPIQRPIPSAFCFLSHDHGRTWARGHFVAQDTLECQVAEVETGEQRVVTLNARSHLRARVQAQSTNDGLDFQESQLVKKLVEPPPQGCQGSVISFPSPRSGPGSPAQWLLYTHPTHSWQRADLGAYLNPRPPAPEAWSEPVLLAKGSCAYSDLQSMGTGPDGSPLFGCLYEANDYEEIVFLMFTLKQAFPAEYLPQ
notes: NEU2, cytosolic sialidase; source: E. coli BL21(DE3), purified (Glutathione Sepharose 4B)
binding result: binds

From PMC4598761, “Co-Expression of NEU2 and GBA3 Causes a Drastic Reduction in Cytosolic Sialyl Free N-glycans in Human MKN45 Stomach Cancer Cells—Evidence for the Physical Interaction of NEU2 and GBA3” (Biomolecules, 2015)
